# Data taken from patent US20230235068A1.
# Target: extracellular domain portion of LEPR protein expressed with a C-terminal human Fc tag (human)
# Test: competition ELISA, 10 nM hLEPR-hFc binding to coated hLeptin; soluble hLeptin as competitor
# Chain of extracellular domain portion of LEPR protein expressed with a C-terminal human Fc tag (human) (chain, as listed by the source limits assumed): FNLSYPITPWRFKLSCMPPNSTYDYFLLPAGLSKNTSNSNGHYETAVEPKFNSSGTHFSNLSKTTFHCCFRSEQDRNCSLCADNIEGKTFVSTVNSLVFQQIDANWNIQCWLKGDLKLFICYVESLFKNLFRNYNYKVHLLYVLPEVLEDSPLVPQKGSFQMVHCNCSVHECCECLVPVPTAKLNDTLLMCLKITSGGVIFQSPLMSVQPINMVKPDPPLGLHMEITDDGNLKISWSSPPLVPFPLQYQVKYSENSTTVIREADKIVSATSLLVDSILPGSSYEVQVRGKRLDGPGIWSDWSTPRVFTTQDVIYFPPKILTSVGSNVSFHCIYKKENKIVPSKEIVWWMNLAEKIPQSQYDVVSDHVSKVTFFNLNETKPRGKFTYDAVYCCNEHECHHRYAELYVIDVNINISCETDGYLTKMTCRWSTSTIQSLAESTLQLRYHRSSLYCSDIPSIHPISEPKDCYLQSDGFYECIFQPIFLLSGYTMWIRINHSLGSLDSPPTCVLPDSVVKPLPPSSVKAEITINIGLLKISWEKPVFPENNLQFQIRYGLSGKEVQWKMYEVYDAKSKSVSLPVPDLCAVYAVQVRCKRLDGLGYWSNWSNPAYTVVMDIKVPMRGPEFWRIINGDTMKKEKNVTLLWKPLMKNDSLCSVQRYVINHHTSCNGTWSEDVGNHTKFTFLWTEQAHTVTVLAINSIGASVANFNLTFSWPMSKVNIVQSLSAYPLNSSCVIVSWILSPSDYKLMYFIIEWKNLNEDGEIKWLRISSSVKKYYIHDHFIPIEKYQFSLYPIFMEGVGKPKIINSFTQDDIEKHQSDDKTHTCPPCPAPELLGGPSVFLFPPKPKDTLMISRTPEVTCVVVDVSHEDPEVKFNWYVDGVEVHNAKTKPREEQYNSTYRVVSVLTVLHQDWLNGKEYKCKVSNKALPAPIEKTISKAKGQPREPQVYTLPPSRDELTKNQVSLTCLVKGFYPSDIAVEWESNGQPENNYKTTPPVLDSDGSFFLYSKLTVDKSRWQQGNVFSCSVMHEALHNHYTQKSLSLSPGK
substance,measurement,value
human Leptin (from UniProt P41159 22-167) (ligand),% blockade at 500 nM,99%
